Assay: soluble on expression in E. coli; label from the status in PepcDB or PDB records

Which “soluble on expression in E. coli” value does the source give for “MAGDPMVTQNKKILIITGSFGNGHLQVTQSVVNQFKEMNLDNLTVIEHDLFLEAHPILTSICKKWYINSFKYFRNMYKAFYYSQPDQLDKCFYKYYGLNKLMNLLLKEKPDLILLTFPTPVMSVLTEQFDMNIPIATVMTDYRMQKNWITPFSQRYYLATEELKDEFASIGIPKDKLKVTGIPISDKFETDIDKTAWLSQNHLDPDKPTILMSAGAFGVSKGFGQMIQEILNRSPHAQVVMICGKNKDLKRSLTSQFKDFNNVLILGYTKHMNEWMASSQLMITKPGGITISEALTRQIPMIFLDPAPGQELENAVYFEEKGYGRIANTPEAAIEQVAALTNAPTKLASMSESMDASRIPYSTYKLCKDLLNLLNHSSHYEEVYGKVPLYAKLFVKLEHHHHHH” here?
Its value is “not soluble”.

For “MSLSTIDLHVHSNYSDGIHPPADLVKMAAERGLVAIAIADHDTVDGIDEALIAGARLGVEVVPAVELSAEHGRYRDMHILGYHLDHRDPRLVDMLAEFRINREIRGRAIVDKINQRLADGRKPLLSYDEVLNLAEGAVGRPHIGRMLIERGYARNMEDAFRRYLIPCNVPKRYIPAGDAITEIRRAGGVAVLAHPITVSDDRQVLRGIVSELVALGLDGIEVFNNMCYKDDMLFLEFLCRESGLLMTGGSDFHGFEDDVEIGSGRGGLAVSHRLAEAVKNLAESRRITPPGSRTEGHHHHHH”, which “soluble on expression in E. coli” value is on record?
The value was “soluble”.

For “MAAKKRGLGRGLDALLGGSSPAKLQEEAVQADRRELQQIPLDLMQRGKYQPRRDMDPQALEELAQSIKAQGVMQPIVVRPIANGRYEIIAGERRWRASQQAGLEKIPALVRDVPDEAAIAMALIENIQREDLNPIEEAAALQRLQQEFQLTQQQVAEAVGKSRATITNLLRLIGLPEEIKTLLSHGDLEMGHARALLGLPAERQVEGARHVVAHGLTVRQTEALVRQWTHAPGKPAGPVKSDPDIARLEQRLAERLGASVQIRHGQKGKGQLVIRYSSLDELQGVLAHIR”, which “soluble on expression in E. coli” value is on record?
The value was “not soluble”.

With “AATQTWTGDLAIVTIPFSSLRFVKVTPPFSYKKRRAVIETHYDQATKVLLEFSRRWWEFTEADWKRELDAIAPGLYDYYQQWGEDDAEAALALPQSVRNLPTGLLGAHPSVDESRIGEEQVEYYRNSELR” as the sequence, how does the “soluble on expression in E. coli” value read?
Its value is “soluble”.

For “GALKRAEELKTQANDYFKAKDYENAIKFYSQAIELNPSNAIYYGNRSLAYLRTECYGYALGDATRAIELDKKYIKGYYRRAASNMALGKFRAALRDYETVVKVKPHDKDAKMKYQECNKIVKQKAFERAIAGDEHKRSVVDSLDIESMTIEDEYSGPKLEDGKVTISFMKELMQWYKDQKKLHRKCAYQILVQVKEVLSKLSTLVETTLKETEKITVCGDTHGQFYDLLNIFELNGLPSETNPYIFNGDFVDRGSFSVEVILTLFGFKLLYPDHFHLLRGNHETDNMNQIYGFEGEVKAKYTAQMYELFSEVFEWLPLAQCINGKVLIMHGGLFSEDGVTLDDIRKIERNRQPPDSGPMCDLLWSDPQPQNGRSISKRGVSCQFGPDVTKAFLEENNLDYIIRSHEVKAEGYEVAHGGRCVTVFSAPNYCDQMGNKASYIHLQGSDLRPQFHQFTAVPHPNVKPMAYANTLLQLGMM”, which “soluble on expression in E. coli” value is on record?
Its value is “soluble”.

For “MSLNPNVQECSFEETIEAHLFANGYASLPASDYDAALALFPTSVLTFVRATQLKEWAKLEALHGANTEATVLKDLTHWLDTHGTLAVLRNGFKCYGRTLRVAYFKPAHGMNPELAAQYAANRVGVIRQLRYSQRNTNELDLVLSINGIPVFTAELKNPMTGQTVTNAIAQYQHDRDHREPLFEFKRRALVHFAVDTEQVFMTTRLAGSATHFLPFNKGLDGGAGNPPDPAGRAYRTAYLWEEVWQRDSLLDIFARFIHLQVEEKRTDDGRKIKKETMIFPRYHQLRAVRELEDAARTEGPGHNYLVEHSAGSGKSNTIGWLAHRLASLHNESDHKVFDSVIVITDRRVLDRQLQDTIYQFEHRQGVVQKIDEDSRQLAEALTNSVPIIISTLQKFPFVARQLARMAEERREGADGILPTRRCAVIIDEAHSSQSGETATDLKEVLGGHVLREEAARYAVDEGVDNLDELYRSMAKRGRQTNLSFFAFTATPKHKTLAVFGRDEAGKAGQPFHRYTMSQAIEEGFIMDVLKNYTTYATYYKLVKASEDDPNVERKQAAKALARFMRLHPYNIAQKTEVMVEHFNAVTRHKVGGKAKAMVVTGSRLEAVRYKLAFDAYIREKGYSWIKTLVAFSGEVVDDELPGKTWTEVGMNGGIKEGVLPEKFDSSEYQVLLVAEKYQTGYDQPLLHTMYVDKRLAGIQAVQTLSRLNRMHPLKEDTFVLDFVNDRQEIKEAFKQYHEGAEMGEEADPNQMYAIKAELDASGIYLLEEMQRFIGIYFKPKQRQSPADHQAMNEGHHHHHH”, which “soluble on expression in E. coli” value is on record?
Its value is “not soluble”.

For “MAGDPMSRPPVPPFTCKTAIEKVRLAEDGWNSRDAAKVALAYTVDTRWRNRVEFATNREEAQAFLTRKWNREHEYRLIKELWAFTGNRIAVRYAYEYRDDNGQWFRAYGNENWEFAEDGLMAHRHACINEMPIAESDRLYHWPLGRRPDDHPSLTDLGLLEHHHHHH”, which “soluble on expression in E. coli” value is on record?
The value was “not soluble”.

For “MGSDKIHHHHHHMIHFSINKNLFLQALNTTKRAISSKNAIPILSTVKIDVTNEGITLIGSNGQISIENFISQKNEDAGLLITSLGSILLEASFFINVVSSLPDVTLDFKEIEQNQIVLTSGKSEITLKGKDSEQYPRIQEISASTPLILETKLLKKIINETAFAASTQESRPILTGVHFVLSQHKELKTVATDSHRLSQKKLTLEKNSDDFDVVIPSRSLREFSAVFTDDIETVEIFFANNQILFRSENISFYTRLLEGNYPDTDRLIPTDFNTTITFNVVNLRQSMERARLLSSATQNGTVKLEIKDGVVSAHVHSPEVGKVNEEIDTDQVTGEDLTISFNPTYLIDSLKALNSEKVTISFISAVRPFTLVPADTDEDFMQLITPVRTN”, which “soluble on expression in E. coli” value is on record?
Its value is “soluble”.

With “MSVASNRDAVVTARRRFFGEGRSVDGMLAAPILRSWQRCAGQGLDASRSPLVEPPTARELREFQERHDRLGRLARPELNALQGDARLTGSVVILTDAAGVVLDMIGSDEFAGRAAQVALRPGVSWSEADTGTNAIGTALVERQPIAVHGAEHFFERHRILACAAAPLIDPRGVVAGALDMTGPAAIRHVHALGLMRLAAEQIEHRFFTEGFEHCTMLRLHTDRALLGTPREGVLAFADGVLVGANRHGLDLMNLDWPALDLARLETLLPGVRPSDQIQMLRGPRGTRLWGRLVDPLRRSPRAPAASMPAAVPAAPAGEVEPILDAEMMAQLSRTVRLVEAGIPVLLLGETGSGKDVFARRVHAESARRNKPFVPVNCAALPEGLIESELFGYEAGAFTGARRQGAPGLLRQADGGVLFLDEIGDMPLSLQSRLLRVLQDKQISPLGGGRPVPVDFALICATHQPLGTLLAAGAFRQDLYFRIAQYVVERPPVRHHPDRLALVRTLWRQLGGEDAGVQLSAEVERVLAAYNWPGNYRQLVGTLRALLVLGEPGHPVEVAALPAEITAAAGAVESQVSEMLPGTSLAEQTRSVLQAALDASGGNVSRAARRLGIDRSTYYRRLLKDKDRGR” as the sequence, how does the “soluble on expression in E. coli” value read?
The value was “not soluble”.

With “MVAKDYPFYLTVKRANCSLEAPLGSGVAKDEEPSNKRVKPLSRVTSLANLIPPVKTTPLKRFSQTLQRSISFRSESRPDILAPRAWSRNATSSSTKRRDSKLWSETFDVCVNQVLTAKEIKRQEAIFELSQGEEDLIEDLKLAKKAYHDPMLKLSIMTEQELNQIFGTLDSLIPLHEELLSQLRDVRKPDGSTEHVGPILVGWLPCLSSYDSYCSNQVAAKALLDHKKQDHRVQDFLQRCLESPFSRKLDLWNFLDIPRSRLVKYPLLLREILRHTPNDNPDQQHLEEAINIIQGIVAEINTKTGESECRYYKERLLYLEEGQKDSLIDSSRVLCCHGELKNNRGVKLHVFLFQEVLVITRAVTHNEQLCYQLYRQPIPVKDLTLEDLQDGEVRLGGSLRGAFSNNERVKNFFRVSFKNGSQSQTHSLQANDTFNKQQWLNCIRQAKETVLSAAGQAGLLDSEGLVQGPGTENREPQGETKLEQMDQSDSESDCSMDTSEVSLECERMEQTDASCANSRPEESV” as the sequence, how does the “soluble on expression in E. coli” value read?
The value was “soluble”.

For “MDAFIVDPVQGELYSGLSHTELADIIRLADSVENQLNGGNSFLDVFSTYMGQVISEFMHSNDNRIELLQRRLHSCSFLVNIEEMSYIDEALQCPITLAIPQRGVFLRNAEGSRVCSLYDEMALSRIINDGMHHPLSREPITLSMLVAREQCEFDCSIGHFTVRSDCYSV”, which “soluble on expression in E. coli” value is on record?
Its value is “soluble”.

For “KGKKVILFAPTFRGSGHGTAHYPFFKIDFERLARYCEKNNAVVLFKMHPFVKNRLNIADKHKQYFVDVSDFREVNDILFITDLLISDYSSLIYEYAVFKKPMIFYAFDLEDYITTRDFYEPYESFVPGKIVQSFDALMDALDNEDYEGEKVIPFLDKHFKYQDGRSSERLVRNLFG”, which “soluble on expression in E. coli” value is on record?
The value was “not soluble”.

— the DeepSol protein solubility set
